Experimental data published in patent publication US20130180016A1.

Legend:
[1] = molecular target: putative receptor(s) on brush border membrane vesicles (BBMV) prepared from midguts of third instars of the western corn rootworm (Diabrotica virgifera virgifera LeConte) (Diabrotica virgifera virgifera); assay: saturation radioligand binding to western corn rootworm BBMV (0.1 mg/ml), GraphPad Prism fit
[2] = molecular target: putative receptor(s) on brush border membrane vesicles (BBMV) prepared from midguts of third instars of the western corn rootworm (Diabrotica virgifera virgifera LeConte) (Diabrotica virgifera virgifera); assay: homologous competition, 5 nM 125I-Cry3Ba1 on western corn rootworm BBMV (0.1 mg/ml), unlabelled Cry3Ba1 (0-2,500 nM) as competitor
[3] = molecular target: putative receptor(s) on brush border membrane vesicles (BBMV) prepared from midguts of third instars of the western corn rootworm (Diabrotica virgifera virgifera LeConte) (Diabrotica virgifera virgifera)

Row | Binder | Kd [1] [nM] | binding site concentration Bmax [1] [pmol/mg BBMV] | percent of the total binding displaced [2] [%] | specific binding as percent of the total binding [3] [%]
1 | Cry3Ba1 trypsin core (protein, 125I-iodinated (Pierce Iodination Beads, Na125I) where used as the labelled ligand; unlabelled where used as competitor) SQDRIRELFSQAESHFRNSMPSFAVSKFEVLFLPTYAQAANTHLLLLKDAQVFGEEWGYSSEDIAEFYQRQLKLTQQYTDHCVNWYNVGLNSLRGSTYDAWVKFNRFRREMTLTVLDLIVLFPFYDVRLYSKGVKTELTRDIFTDPIFTLNALQEYGPTFSSIENSIRKPHLFDYLRGIEFHTRLRPGYSGKDSFNYWSGNYVETRPSIGSNDTITSPFYGDKSIEPIQKLSFDGQKVYRTIANTDIAAFPDGKIYFGVTKVDFSQYDDQKNETSTQTYDSKRYNGYLGAQDSIDQLPPETTDEPLEKAYSHQLNYAECFLMQDRRGTIPFFTWTHRSVDFFNTIDAEKITQLPVVKAYALSSGASIIEGPGFTGGNLLFLKESSNSIAKFKVTLNSAALLQRYRVRIRYASTTNLRLFVQNSNNDFLVIYINKTMNIDGDLTYQTFDFATSNSNMGFSGDTNDFIIGAESFVSNEKIYIDKIEFIPVQ | 7.35 | 0.55 | > 20 | –
2 | Cry35Ab1 chymotrypsin core (chymotrypsin-truncated Cry35Ab1 core protein) (protein, 125I-iodinated (Pierce Iodination Beads, Na125I) where used as the labelled ligand; unlabelled where used as competitor) MLDTNKVYEISNHANGLYAATYLSLDDSGVSLMNKNDDDIDDYNLKWFLFPIDDDQYIITSYAANNCKVWNVNNDKINVSTYSSTNSIQKWQIKANGSSYVIQSDNGKVLTAGTGQALGLIRLTDESSNNPNQQWNLTSVQTIQLPQKPIIDTKLKDYPKYSPTGNIDNGTSPQLMGWTLVPCIMVNDPNIDKNTQIKTTPYYILKKYQYWQRAVGSNVALRPHEKKSYTYEWGTEIDQKTTIINTLGFQINIDSGMKFDIPEVGGGTDEIKTQLNEELKIEYSHETKIMEKYQEQSEIDNPTDQSMNSIGFLTITSLELYRYNGSEIRIMQIQTSDNDTYNVTSYPNHQQALL | 11.7 | 0.78 | – | –
3 | mixture of Cry35Ab1+Cry34Ab1 (binary toxin) (protein, 125I-iodinated where the mixture holds the labelled ligand) chain 1: MLDTNKVYEISNHANGLYAATYLSLDDSGVSLMNKNDDDIDDYNLKWFLFPIDDDQYIITSYAANNCKVWNVNNDKINVSTYSSTNSIQKWQIKANGSSYVIQSDNGKVLTAGTGQALGLIRLTDESSNNPNQQWNLTSVQTIQLPQKPIIDTKLKDYPKYSPTGNIDNGTSPQLMGWTLVPCIMVNDPNIDKNTQIKTTPYYILKKYQYWQRAVGSNVALRPHEKKSYTYEWGTEIDQKTTIINTLGFQINIDSGMKFDIPEVGGGTDEIKTQLNEELKIEYSHETKIMEKYQEQSEIDNPTDQSMNSIGFLTITSLELYRYNGSEIRIMQIQTSDNDTYNVTSYPNHQQALL chain 2: MSAREVHIDVNNKTGHTLQLEDKTKLDGGRWRTSPTNVANDQIKTFVAESNGFMTGTEGTIYYSINGEAEISLYFDNPFAGSNKYDGHSNKSQYEIITQGGSGNQSHVTYTIQTTSSRYGHKS | – | – | – | 90
